Measurements from PMC8732845, “Novel interaction between neurotrophic factor-α1/carboxypeptidase E and serotonin receptor, 5-HTR1E, protects human neurons against oxidative/neuroexcitotoxic stress via β-arrestin/ERK signaling” (Cellular and Molecular Life Sciences: CMLS, 2021).

Target: 5-hydroxytryptamine receptor 1-E (5-HTR1E) on stably transfected HEK293 cells (human, UniProt P28566 1-365)
Test: cell-based or functional assay

Chain of 5-hydroxytryptamine receptor 1-E (5-HTR1E) on stably transfected HEK293 cells (P28566 whole entry): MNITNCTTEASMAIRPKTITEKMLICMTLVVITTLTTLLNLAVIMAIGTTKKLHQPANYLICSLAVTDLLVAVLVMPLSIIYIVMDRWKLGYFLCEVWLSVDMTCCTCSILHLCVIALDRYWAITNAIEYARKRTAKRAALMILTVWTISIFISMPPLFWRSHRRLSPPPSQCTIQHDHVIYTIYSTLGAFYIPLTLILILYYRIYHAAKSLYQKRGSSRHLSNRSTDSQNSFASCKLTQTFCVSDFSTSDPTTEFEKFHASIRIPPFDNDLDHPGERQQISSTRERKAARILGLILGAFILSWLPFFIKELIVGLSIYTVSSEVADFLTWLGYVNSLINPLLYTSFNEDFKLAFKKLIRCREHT

CREB phosphorylation (Western blot, pCREB/tCREB) in 5-HTR1E stable cells, 50 nM NF-α1/CPE, 10–60 min (value after 20 min); not in control HEK293 cells: 1.3 fold | phosphorylation of ERK 1/2 (Western blot, pERK/tERK) in 5-HTR1E stable HEK293 cells, 0–50 nM NF-α1/CPE for 5–15 min; not in control HEK293 cells: 3.4 fold
B1: Recombinant mouse NF-α1/CPE (neurotrophic factor-α1/carboxypeptidase E), unlabeled (ligand)
chain: not shown
